Assay results as given in patent US20160058886A1.

Columns and labels:
[1] = target: nucleolin at the surface of MDA-MB-231 and MDA-MB-435S breast cancer cells (UniProt P19338); test: flow cytometry, rhodamine geometric mean fluorescence, MDA-MB-231 cells
[2] = target: nucleolin at the surface of MDA-MB-231 and MDA-MB-435S breast cancer cells (UniProt P19338); test: flow cytometry, rhodamine geometric mean fluorescence, MDA-MB-435S cells

Sequence of UniProt P19338 (P19338 2-710 limits assumed): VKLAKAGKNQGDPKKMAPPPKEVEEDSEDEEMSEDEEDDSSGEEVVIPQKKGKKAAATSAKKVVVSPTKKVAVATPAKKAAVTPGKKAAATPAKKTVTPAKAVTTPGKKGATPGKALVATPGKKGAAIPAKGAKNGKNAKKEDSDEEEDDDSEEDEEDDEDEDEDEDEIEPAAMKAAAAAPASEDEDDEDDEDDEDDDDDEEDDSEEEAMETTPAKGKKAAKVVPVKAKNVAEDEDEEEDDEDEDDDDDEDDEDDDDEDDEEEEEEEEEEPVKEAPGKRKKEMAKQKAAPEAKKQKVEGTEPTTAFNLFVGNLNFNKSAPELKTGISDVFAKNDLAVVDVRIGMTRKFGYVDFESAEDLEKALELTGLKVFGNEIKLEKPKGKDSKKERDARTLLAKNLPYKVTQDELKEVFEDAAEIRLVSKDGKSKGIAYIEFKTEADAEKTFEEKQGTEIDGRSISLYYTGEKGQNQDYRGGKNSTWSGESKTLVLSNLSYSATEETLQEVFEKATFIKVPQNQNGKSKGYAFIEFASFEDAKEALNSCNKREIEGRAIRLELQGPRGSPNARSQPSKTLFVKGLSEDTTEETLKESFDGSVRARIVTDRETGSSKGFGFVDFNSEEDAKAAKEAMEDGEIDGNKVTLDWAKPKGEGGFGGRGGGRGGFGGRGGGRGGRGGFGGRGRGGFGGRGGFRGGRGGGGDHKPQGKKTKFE

higher cellular association of the CD44+/ALDHhi population against the CD44-/ALDH-/low population (MDA-MB-231) [1]: 64% | higher cellular association of the CD44+/ALDHhi population against the CD44-/ALDH-/low population (MDA-MB-435S) [2]: 61%
Substance: F3 peptide-targeted liposomes (F3 peptide, SEQ ID NO:1, coupled through DSPE-PEG2k to pH-sensitive liposomes)
